Consider one molecule from paper PMC11463350.

For the data set, the target named is T1, zPol θ (zebrafish DNA polymerase theta, polymerase domain) (Danio rerio (zebrafish), UniProt F1Q4P4 1798-2576).
T1 sequence: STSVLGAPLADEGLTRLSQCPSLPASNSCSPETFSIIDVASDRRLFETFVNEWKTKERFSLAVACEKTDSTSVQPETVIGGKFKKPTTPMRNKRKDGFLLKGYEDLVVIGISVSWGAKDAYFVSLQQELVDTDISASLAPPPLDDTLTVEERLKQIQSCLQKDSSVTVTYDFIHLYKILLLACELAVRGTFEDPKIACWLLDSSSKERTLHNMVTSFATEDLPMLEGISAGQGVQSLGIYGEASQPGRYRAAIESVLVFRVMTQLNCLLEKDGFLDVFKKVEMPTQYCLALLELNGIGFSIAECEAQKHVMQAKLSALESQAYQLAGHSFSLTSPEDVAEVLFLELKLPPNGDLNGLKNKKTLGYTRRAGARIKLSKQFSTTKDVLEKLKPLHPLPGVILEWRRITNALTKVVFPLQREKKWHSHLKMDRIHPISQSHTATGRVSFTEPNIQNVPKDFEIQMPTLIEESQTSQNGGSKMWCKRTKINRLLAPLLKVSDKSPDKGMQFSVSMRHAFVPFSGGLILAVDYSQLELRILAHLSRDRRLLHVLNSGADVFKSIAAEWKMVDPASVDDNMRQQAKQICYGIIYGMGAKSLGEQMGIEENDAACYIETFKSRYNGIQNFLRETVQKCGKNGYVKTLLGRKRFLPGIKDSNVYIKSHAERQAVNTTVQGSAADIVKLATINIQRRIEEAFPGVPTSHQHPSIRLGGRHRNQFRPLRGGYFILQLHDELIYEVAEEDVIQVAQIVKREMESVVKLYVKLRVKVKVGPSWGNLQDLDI
The experiment in a line: EMSA.

B1: 25/40 undamaged DNA substrate (dsDNA)
DNA 1: TTTGCCTTGACCATGTAACAGAGAG
DNA 2: TCTCTTCTCTCACTCACGCTCTCTGTTACATGGTCAAGGC
Molecule B1 registered a Kd of approximately 19.8 nM.
